A protein production outcome set (Wang et al. 2014)

Experiment: label from the status in PepcDB records
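Note: failed if final PepcDB status was selected cloned or expressed and not failed if soluble or beyond.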

Row | Sequence | protein production
1 | MQKFFQRIWQWIQQLFAPLVGGPGPGTKSLQELPPLSDTDYEFLFNQLLEGIAHGWHEGRILKFFQQLDHRCRPKQWLDWLDRFQTTVLASPSPNLVLAARMMRLGELAQSFPQIAPIGDKSQRIGRELYARQSPPQMDTVWEYDGPDLVSIDQAQGQMETFTFDELVQRLPQDAALATHFAGFLGIESTDPQVILRALMEKFAIPEEMLTEALNHGGESSSAPVDSLVEDQGTASALAQEELWPLVDPVTIDNSQFENNQEPHTAEDWLNLGIQQAQRGELETAIASWGEAISLNPQMTSAWQNRGSALGVMGKLEEALANFDEALAQNPDDAEVWLSRGLLLEAMERKEEAIPSYEKALTLEPTLPEAQERLEELQGLLSQD | failed
2 | MHRGKETSTKPKKPVTRRKDFSASGKGKKRKKRRVHKMKPWQIALICVGAFIAALLAFGLMYVYAKWSKIDTKSIKADDIIINEEVKKNKNVDLGDGYTNVALFGVDSRDGDLGEGNRTDCIIVASLNNKTKEIKMVSVYRDTLLDLSEGTYQKCNAAYSYGGPVLAINMLNMNLDLDIQDYVTVDFGAIADAVDLLGGIEIEVTEEELPYINQYIPETANSAGKAANLLQSAGLQKLDGTQATTYARIRSTAGGDFTRTERQRLVIEKMFEKAKGADIGTLNKIIDKVFPQVSTSFTLPEILKYASAYSEYKLVGNMGFPEDKYTDMLSEIGSVVVPDNLVSNVTKLHEFLFGITGYVPSSTVQTVGSNISYTASAKKSSGTGSQSSYDSGESYNDSGYTDNSGNYEGGNTGGNYDDGSMSGNSGNTGNSGETGGVGGNGSTGDNTGGTTVEPPVVPDGGTDSGGGQTEAPPEGTVQ | failed
3 | MSLAPCGLVPSARQLEWYNREMIAFFHFGINTFEEYVNEGDGKASTAIFNPTALDCRQWMQTLKAAGIPAAILTAKHADGFCLWPSKYTDYSVKNAAWKNGKGDVVREFVDACEEYGLKAGIYLGPHDRHEHLSPLYTTERYKEYYAHQLGELMSDYGKIWETWWDGAGADELTTPVYRHWYKIVREKQPDCVIFGTKNSYPFADVRWMGNEAGEAGDPCWATTDSVAIRDEAQYYKGLNEGMLDGDAYIPAETDVSIRPSWFYHAEEDSRVKSVRELWDIYCTSVGRNSVLLLNFPPDRRGLIHSTDSLHAALLKQGIDETFSTNLLRGAKVKATNVRGAKYSPEKMLDNEKNTYFAGKDGEVKADIIFTLPKTIEFDCLMIEEVIELGHRTTKWSVEYTVDGKNWITIPEATDKQAIGHKWIVRLAPVKAKQVRLRIQDGKACPAIHTFGVYKQSPVFKEGHHHHHH | not failed
4 | MAIVKMNKFTLLAFESEKEKLLKKIQSSSEVEFINLQDEEKVEGNEVFESLSKDDLDAETTLIEENVSKTRSALDFLKEFVAEVGGLKALKAGKESLTLDELEVKVENSNWEVVYSEVKKMERELATLENEKTKLLGEIEILEPWQSFDAPLGELNNFEKVVAFLGVISSQNLENMKNEIESEFKESYIEVISNTDQDSYVFVMTMKERAEEMDEVLKNFGFSAFQTKYKEKASVLVEEFKLKIQEIEAQKSDLKGVLSNYREEKRTLELAYEYYSNILLRKEASENFLKTDKVVVIQGWVPKNDNSSLEGIIQSSVGDMYYLEFEEVKEEEVAEVPVKLHNKGPAAAFDSITEMYSLPRYDEIDPTPLLTPFYLVFFGMMVADLGYGLVLFVGSLLAMKLLNLDEAQEKFAKFFMYLSIATTIAGAVFGTAFGFELKSIGLINPSKDTNLLLILSVGFGVIQIFFGLFIKAYMLIRDKQYLYALFDVGSWIMLLIGLPMIFFDGPISLVGKVLSIVGSILIILTQGRDEETKGAQIGQGLYALYGITGYVGDLVSYTRLMALGIAGGSIAAALNLIIGMFPGIAVIIVGPLFFIAAHTFNMLLSLLGAYVHTARLQYVEYFSKFYEGGGKAFTPFRTINKFITIKRNK | failed
5 | MTDAPADAPLDADARRAVKPVICYPNDSLPRPDLALYRAARASARKTGEVLVPPREGRCFEVKAGQFFRISSVEGPQVGDLNLHNLHDLTERFFSGKTRALHGTHVTTGERLWSNLPYLRPMATIIEDTLGWYGIDQYGGSVHDVIGTRCDPYTGNLLAGGHYHHCCHSNLTRALADHTGLPLHEAEMLVHDVLNVFMCTGFTRDTGQYFMKASPVRPGDYLEFFAEIDLLGNLSACPGGDCSSEHSSDTASCHPLLVEIFAPAEGMLGDWPSPSVNGYDRSHGR | not failed
6 | MSEATILVSGATGRTGGAAIDELLKSGKQVRAYVRSNDDRAAAFRKRGVEVAIGDFTGIDDIRAAMEGVTSAYFLHPIAPGIIGAAAYFAQAAKEAGVSAIVNMSQISARRESASHAAQDHWISERVFDWSGVATTHLRPTFFADWLVYPHFAKEIWAKKKIEFPFENGRHAPIATDDQGRVIAHILANPEGHGGKTYTLTGPIELNHTEIAAAMSEVLGAKIEYAPTSIDEFRNKMENVYKFPPFLTQHLVEVAQNYRDGIFSGANDAVEKITGTPALSVQQFIAQNRAVFA | failed
7 | MTNQDNNHQLNHRIYHFEKIYKAIKHVIVFIFMIFIAIVAIAVIAMSLYFHHLTKTSDSLSDDALIKKVRQIPGDELLDHNNKNLLYEYNHSQNSLIIGPKTSSPNVIKALTSSEDTLFYKHDGILPKAILRAMIQDIFNTDQSSGGSTITQQLVKNQVLTNEKTYSRKANELRLAIRLEHLLSKDEIIYTYLNIVPFGRDYNGANISGIASASYSLFGIPPKDLSIAQSAYLIGLLQSPYGYTPYEKDGTLKSDKDLKYSIQRQHYVLKRMLIEDQITEKEYNDALKYDIKSHLLNRKKR | failed
8 | MGWHFQQSVTMPSEWRTLALESDDSYNDFTVIMRRKLQENQVNVVNLEQNIPILRINKQITSDQVASIFKHGREAEKLLMLEVEATFRLANGESYPINAKVNRTFFDNARAALAKSEEREVIWNDMREQVARQLIVKIIALQNQIKRKLEHHHHHH | not failed
9 | KVKWTHEEDEQLRALVRQFGQQDWKFLASHFPNRTDQQCQYRWLRVL | not failed
10 | MAQTQLPHDAKAGPTKPEVRAVVRSKLALTDDDHFVEVGSCTGAVTIAAARDAGRVTALERKADRLETTRKNLAANGLADAVELRNAEAPAELPADADALFIGGSRNYDAVLDHAAETGVDRIVMNVSRLEVAGAATQAFRDRDILTEVVQFQVSHGYELAGATSFDSENPVYMLVGSASGDTEADR | failed
11 | MKKLNIALLGLGTVGSGVVKIIEENRQQIQDTLNKDIVIKHILVRDKSKKRPLNISQYHLTEDVNEILNDDSLDIIVEVMGGIEPTVDWLRTALKNKKHVITANKDLLAVHLKLLEDLAEENGVALKFEASVAGGIPIVNAINNGLNANNISKFMGILNGTSNFILSKMTKEQTTFEEALDEAKRLGFAEADPTDDVEGVDAARKVVITSYLSFNQVIKLNDVKRRGISGVTLTDINVADQLGYKIKLIGKGIYENGKVNASVEPTLIDKKHQLAAVEDEYNAIYVIGDAVGDTMFYGKGAGSLATGSAVVSDLLNVALFFESDLHTLPPHFELKTDKTREMMDSDAEINIKEKSNFFVVVNHVKGSIENFENELKAILPFHRSLRVANYDNQSYAAVIVGLESSPEELITKHGYEVDKVYPVEGV | failed
12 | PGSFSQEAAEIFGSDLVPVRSISEIFHKISVTGDYGIVPIENSIEGPVNETLDGLFRHEDIYIVDHVEIPIEIFLASNCDTENIRRIYSHPHAIAEAGDYLERTENIEVIRTSSTSEAAKLASMDEAGAALCSMKAAQHYGLANTVKIESKSRNITRFILIGRERN | not failed
13 | MHSDALSWGHGPRLFEVFLEPTCPFSVKAFFKLDDLLAQAGEDNVTVRIRLQSQPWHMFSGVIVRCILAAATLEGGKESAKAVMTAVASHREEFEFEHHAGGPNLDATPNDIIARIERYSGLALAEAFANPELEHAVKWHTKYARQNGIHVSPTFMINGLVQPGMSSGDPVSKWVSDIG | not failed
14 | NNELTQFLPRIVTLKKPPGAQLGFNIRGGKASQLGIFISKVIPDSDAHRAGLQEGTXVLAVNDVDFQDIEHSKAVEILKTAREISMRVRFF | not failed
15 | MSDVTGDLAAVSEAKGGSDAARISEVKAWLTSQFEAVGKEVPNFEYTHRSITHLYNLATASQAKSQAATIVANDFRLKASEYRAQAARIREILESAGMSQESLPSNVVSSAQVLANVANLLNIRDTELSRILAQLEDDVVPCESQMENWKTNLEVMAVKEEQYIQQYKKYEMLLNRVGYTPKISHRELVEMAEHRKELDKMTKPVLDTLRSYQDLPPDKALAALAIEDKKRQFTAAEKYLEEVLQSALETNDE | failed
16 | SPGSAAKGSELSERIESFVETLKRGGGPRSSEEMARETLGLLRQIITDHRWSNAGELMELIRREGRRMTAAQPSETTVGNMVRRVLKIIREEYGRLHGRTDESDQQESLHKLLTSGGLNEDFSFHYAQLQSNIIEAINELLVELEGTMENIAAQALEHIHSNEVIMTIGFSRTVEAFLKEAARKRKFHVIVAECAPFCQGHEMAVNLSKAGIETTVMTDAAIFAVMSRVNKVIIGTKTILANGALRAVTGTHTLALAAKHHSTPLIVCAPMFKLSPQFPNEEDSFHKFVAPEEVLPFTEGDILEKVSVHCPVFDYVPPELITLFISNIGGNAPSYIYRLMSELYHPDDHVL | failed
17 | MKFLVENLNGSSFELEVDYRDTLLVVKQKIERSQHIPVSKQTLIVDGIVILREDLTVEQCQIVPTSDIQLEVSSDDDNPNHNDCDQKPQTEQSPALPLVSAEEYFERQDWPLTAEELRQIYSYRPEHEG | failed
18 | GRGTVTNEVRVAVEVPALPAAIASRLEVPAGAGGVYVERLRRLDGLPLSLDTSYLTVDVGRAVLAGDLRDRDVFGLIEEAAGARLGRAEVAVHAVNADPGTARLLGIGPGAAVFALERLTRLADGRPVDAESIRIRADRMA | failed
19 | MDLQGSVIKLQAAEAAGCKSPGRLLIIYLRPDAPRPQACASSVPAAMNRFKASKFRHMEARPSRREAWISDIRAGTTATCGNHIKSSCSLIAFNSDRPGVLGIISLEGHEENKRHVTYLGCHSDLVTDLDFSPFDDFLLASGSADRTIKLWRLSSTGEALPSVPGVVLGPEELPVDVLQFHPTADGVLVSTAGRTVKVWDVAKQQHLTELEAHKDLVQSAVWSRDGATVGTACKDKQLRIFDPRARAQASQSTQAHENNRDIRLAWTGIQEYLVSTGFNQMREREAKLWDTRVFSSALASITLDTSPGSLIPLLDPDSGLLVLAGKGENQLYCYEVTPQQPALSPVTQCILENALRGAALVPRQALAVMNCEVLQVLQLSDTAIIPISHRVPRKAVEFHEDLFPDTAGSVPASDAHTWWAGDNQQVQKVSLNPAHRPHPRFTSSLLPTLEPSPNMEQPAELPRADTELSEGFSSPSSLVSPSTPSSLGLSLSSTSGIGTSPSQRSLQSLLGPSSKFRHAEGTILHRDSHITNLKGLNLTTPGESDGFCANRLRVAVPLLSSGGQVAVLELQKPGRLPDTALPTLQNGAAVMDLVWDPFDPHRLAVAGEDARIRLWRVPPGGLKNVLTTPETVLTGHTEKIYSLRFHPLAADVLASSSYDLTIRIWDLQAGTEQLRLQGHQDQIFSLAWSPDGKQLATVCKDGRVRVYDPRSSPLPLQDGPGPEGGRGARIVWVCNGGCLLVSGFDSRSERQLQLYMADALAEGPSALLGLDVAPSTLLPSYDPDTGLVLLTGKGDTRVFLYEVIPEAPFFLECNSFTSPDPHKGFILLPKTECDIQDVEFARCLRLRQTSLEPVAFRLPRVRKEFFQDDVFPDTAVTWASALDAKAWFKGANGQPRLLSLQPPGMTPVSQAPREVPARRTPSSAQYLEEKSDQQKKEELLNAMVAKLGNREDPLPQDSFEGVDEDEWD | failed
20 | MKLFKELEETKEQVIKMAKLVQEAIDKATEALNKQNVELAEEVIKGDDTIDLLEVDIERRCIRMIALYQPEAGDLRMIMGIYKIVSDLERMGDEAENIAERAILLAEEPPLKPYVNINFMSEIVKEMVNDSVISFIQQDTLLAKKVIEKDDTVDELYHQLERELMTYVLEDPRNIKRAMHLSFVARHYERIADHAENVAEAAIYLSEGEIVKHQHIKEKGE | not failed
